Data published in the supplement of paper PMC9170038.

Tested on: K4 kissing-loop RNA reporter
Test: apparent KD of K4 kissing-loop reporter; higher = weaker reporter binding
Details: Eterna round: R107
Experimental: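 RNA-MaP round R107: designed RNA switches with theophylline, tryptophan, arginine or FMN aptamers are transcribed on-chip within common flanks. They are titrated with a labelled K4 kissing-loop RNA reporter in RNA-MaP buffer (100 mM Tris pH 7.5, 80 mM KCl, 4 mM MgCl2), without ligand or with the indicated ligand. Median apparent KD per design.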

[1] = input ligand: theophylline 20 uM
[2] = input ligand: tryptophan 2.4 mM
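Further: bound reporter read as fluorescence of individual clusters on recovered sequencing chips by microscopy, with normalized cluster intensities fitted with a binding model.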

GAUAGUUAGAGAGAUACCAGCGAUACCUAGAUGGAAAGUGAUGUUCGCCAUCAAUUGCACCGCCCUUGGCAGCUCUCUCUUUGCU [theeternabot_exclusion_KL_Theo_B_37]
apparent KD of K4 kissing-loop reporter (input ligand: FMN 200 uM): 0.995 µM | apparent KD of K4 kissing-loop reporter (input ligand: arginine 13.2 mM): 0.763 µM | apparent KD of K4 kissing-loop reporter (input ligand: none): 1.17 µM | apparent KD of K4 kissing-loop reporter [1]: 0.974 µM | apparent KD of K4 kissing-loop reporter [2]: 0.959 µM

GAUAUAUAGACGGCCGCCACUUAUAAAUUUCAGUGAUGUUGAAAUGUUAAAUAACGAACACAAUAGAGGACCGGGUCAAAUAUCG [Same State Tryptophan B GF 2]
apparent KD of K4 kissing-loop reporter (input ligand: FMN 200 uM): 0.162 µM | apparent KD of K4 kissing-loop reporter (input ligand: arginine 13.2 mM): 0.161 µM | apparent KD of K4 kissing-loop reporter (input ligand: none): 0.19 µM | apparent KD of K4 kissing-loop reporter [1]: 0.187 µM | apparent KD of K4 kissing-loop reporter [2]: 0.171 µM

GAUUGAGUGAUGUUCAAUUAGUAUCUAGAUACCAGAAUGUCUACCUUCCCUUGGCAGCUACUGACGGUGAUCAUUUCGCGCGCAG [theeternabot_sameState_KL_Theo_A_19]
apparent KD of K4 kissing-loop reporter (input ligand: FMN 200 uM): 0.235 µM | apparent KD of K4 kissing-loop reporter (input ligand: arginine 13.2 mM): 0.222 µM | apparent KD of K4 kissing-loop reporter (input ligand: none): 0.244 µM | apparent KD of K4 kissing-loop reporter [1]: 0.253 µM | apparent KD of K4 kissing-loop reporter [2]: 0.195 µM

GCAAAGUGUCAUAUUAUCUAGCAGCUGCGAAAGGAUAUGAGAGUGCUCAGAAGGUUCUUGGCGGAGUGAUGUUCCGCGUAAAUGG [theeternabot_exclusion_KL_FMN_A_22]
apparent KD of K4 kissing-loop reporter (input ligand: FMN 200 uM): 0.0842 µM | apparent KD of K4 kissing-loop reporter (input ligand: arginine 13.2 mM): 0.0938 µM | apparent KD of K4 kissing-loop reporter (input ligand: none): 0.0939 µM | apparent KD of K4 kissing-loop reporter [1]: 0.103 µM | apparent KD of K4 kissing-loop reporter [2]: 0.0814 µM

GCAGACCGCAGUGAUGUUGCGAAAUCGGAAGGAGCGCGUGAAAACGCAGGUAGGUCGCCGACACAGGGAUUAUAACCCUGUUUGC [Arginine A K4 16]
apparent KD of K4 kissing-loop reporter (input ligand: FMN 200 uM): 0.173 µM | apparent KD of K4 kissing-loop reporter (input ligand: arginine 13.2 mM): 0.196 µM | apparent KD of K4 kissing-loop reporter (input ligand: none): 0.207 µM | apparent KD of K4 kissing-loop reporter [1]: 0.176 µM | apparent KD of K4 kissing-loop reporter [2]: 0.154 µM

GCAGCUCGGGAGUGAUGUUCUCGUAGAGGAAAGGAUAUGUACUUAGACAGAAGGUUCGCAAUUUGCGGUCUUAAGAUAGAAUAAC [theeternabot_sameState_KL_FMN_A_40]
apparent KD of K4 kissing-loop reporter (input ligand: FMN 200 uM): 0.177 µM | apparent KD of K4 kissing-loop reporter (input ligand: arginine 13.2 mM): 0.126 µM | apparent KD of K4 kissing-loop reporter (input ligand: none): 0.207 µM | apparent KD of K4 kissing-loop reporter [1]: 0.224 µM | apparent KD of K4 kissing-loop reporter [2]: 0.151 µM

GCAGGAUGAGGAGGAGGAUGAAUUACUGAAGGAGCGCAUAUUUUUGCAGGUAGGUCGCGGUAAAGAAGUAUAGUGAUGUUAUAUA [SSArgA.K]
apparent KD of K4 kissing-loop reporter (input ligand: FMN 200 uM): 0.333 µM | apparent KD of K4 kissing-loop reporter (input ligand: arginine 13.2 mM): 0.255 µM | apparent KD of K4 kissing-loop reporter (input ligand: none): 0.267 µM | apparent KD of K4 kissing-loop reporter [1]: 0.568 µM | apparent KD of K4 kissing-loop reporter [2]: 0.456 µM

GCAGUGAUGUUGCGGAUGUACAGUGGCGUGCGAGGACCGGUACGGCCGCCACUCGUACAGACCAAGCUAAUACAUCGAUAGGUGA [whbob_SS_Tryp_A_m3]
apparent KD of K4 kissing-loop reporter (input ligand: FMN 200 uM): 0.344 µM | apparent KD of K4 kissing-loop reporter (input ligand: arginine 13.2 mM): 0.247 µM | apparent KD of K4 kissing-loop reporter (input ligand: none): 0.353 µM | apparent KD of K4 kissing-loop reporter [1]: 0.287 µM | apparent KD of K4 kissing-loop reporter [2]: 0.218 µM

GCAGUGAUGUUGCUGAUGUGCAGUGGUAGUCGAGGACCGGUACGGCCGCCACUCGGUGAGAAUUUGUUAAUACAUCGAUAAGUGA [XVI]
apparent KD of K4 kissing-loop reporter (input ligand: FMN 200 uM): 0.968 µM | apparent KD of K4 kissing-loop reporter (input ligand: arginine 13.2 mM): 0.558 µM | apparent KD of K4 kissing-loop reporter (input ligand: none): 0.788 µM | apparent KD of K4 kissing-loop reporter [1]: 0.509 µM | apparent KD of K4 kissing-loop reporter [2]: 0.707 µM

GCAUCCUAGUCGGCCGCCACUAACAUGAGUGAUGUUCAUGUACGUCAGUGAUGUUGACGUAGUUAUAGGACCGGGACUAGGAUGC [KL-SSTryp-B7 Brourdwalk3]
apparent KD of K4 kissing-loop reporter (input ligand: FMN 200 uM): 0.146 µM | apparent KD of K4 kissing-loop reporter (input ligand: arginine 13.2 mM): 0.119 µM | apparent KD of K4 kissing-loop reporter (input ligand: none): 0.137 µM | apparent KD of K4 kissing-loop reporter [1]: 0.118 µM | apparent KD of K4 kissing-loop reporter [2]: 0.12 µM

GCCAGAGCGCGAAGGAGCGCCGUGACAGGUUGCUGCCGUGGGCAGUGAUGUUGCUCAAUCUGGCAGGUAGGUCGCGUGCUCUGGC
apparent KD of K4 kissing-loop reporter (input ligand: FMN 200 uM): 0.269 µM | apparent KD of K4 kissing-loop reporter (input ligand: arginine 13.2 mM): 0.219 µM | apparent KD of K4 kissing-loop reporter (input ligand: none): 0.273 µM | apparent KD of K4 kissing-loop reporter [1]: 0.226 µM | apparent KD of K4 kissing-loop reporter [2]: 0.248 µM

GCCCUCUUAACGGCCGCCACUAUAUUUAUGAUCUCUAGUAAGUGAUGUUUACUCCGGCUUAUAGGUAGGACCGGGUUAUUAUCUU [theeternabot_sameState_KL_Trp_B_39]
apparent KD of K4 kissing-loop reporter (input ligand: FMN 200 uM): 0.229 µM | apparent KD of K4 kissing-loop reporter (input ligand: arginine 13.2 mM): 0.336 µM | apparent KD of K4 kissing-loop reporter (input ligand: none): 0.257 µM | apparent KD of K4 kissing-loop reporter [1]: 0.302 µM | apparent KD of K4 kissing-loop reporter [2]: 0.181 µM

GCCGUACGCAUGGAUACCAGCACAGGCCGAAGUGAUGUUUCGUGCGUAUAUUUGUGCUACUGCCCUUGGCAGCCAUGCGUACGGC
apparent KD of K4 kissing-loop reporter (input ligand: FMN 200 uM): 0.0758 µM | apparent KD of K4 kissing-loop reporter (input ligand: arginine 13.2 mM): 0.0669 µM | apparent KD of K4 kissing-loop reporter (input ligand: none): 0.0739 µM | apparent KD of K4 kissing-loop reporter [1]: 0.0665 µM | apparent KD of K4 kissing-loop reporter [2]: 0.0752 µM

GCCGUACGCAUGGAUACCAGCUGCGAAGUGAUGUUUCGGGCGAUCAAAGGAUCGCCCUACAGCCCUUGGCAGCCAUGCGUACGGC
apparent KD of K4 kissing-loop reporter (input ligand: FMN 200 uM): 0.215 µM | apparent KD of K4 kissing-loop reporter (input ligand: arginine 13.2 mM): 0.117 µM | apparent KD of K4 kissing-loop reporter (input ligand: none): 0.173 µM | apparent KD of K4 kissing-loop reporter [1]: 0.125 µM | apparent KD of K4 kissing-loop reporter [2]: 0.118 µM

GCCGUAGAUGGAAGGAGCGUGGUAGACUGUUGAAGUGAUGUUUCAACUCAUUAAGCCCAACCACAGGUAGGUCGCCAUCUACGGC
apparent KD of K4 kissing-loop reporter (input ligand: FMN 200 uM): 0.133 µM | apparent KD of K4 kissing-loop reporter (input ligand: arginine 13.2 mM): 0.107 µM | apparent KD of K4 kissing-loop reporter (input ligand: none): 0.107 µM | apparent KD of K4 kissing-loop reporter [1]: 0.112 µM | apparent KD of K4 kissing-loop reporter [2]: 0.12 µM

GCCGUAGAUUGAAGGAGCGGGCCGUAGUGAUGUUACGCCAAAUUAUCCUUUCUUGAGGUGGUCCAGGUAGGUCGCAAUCUACGGC
apparent KD of K4 kissing-loop reporter (input ligand: FMN 200 uM): 0.168 µM | apparent KD of K4 kissing-loop reporter (input ligand: arginine 13.2 mM): 0.144 µM | apparent KD of K4 kissing-loop reporter (input ligand: none): 0.148 µM | apparent KD of K4 kissing-loop reporter [1]: 0.109 µM | apparent KD of K4 kissing-loop reporter [2]: 0.118 µM

GCCGUAGAUUGAAGGAGCGGUGAAUGCAGGUGAGUCCUUUAGAUGUUUAGUGAUGUUAAACACCAGGUAGGUCGCAAUCUACGGC
apparent KD of K4 kissing-loop reporter (input ligand: FMN 200 uM): 0.235 µM | apparent KD of K4 kissing-loop reporter (input ligand: arginine 13.2 mM): 0.178 µM | apparent KD of K4 kissing-loop reporter (input ligand: none): 0.203 µM | apparent KD of K4 kissing-loop reporter [1]: 0.2 µM | apparent KD of K4 kissing-loop reporter [2]: 0.192 µM

GCCUACGUAGCAGGAUAUAGGUAAGUGAGUGAUGUUCAAGAGUUCUGGAGUGAUGUUCCAAUCUGACUAGAAGGGCUACGUAGGC
apparent KD of K4 kissing-loop reporter (input ligand: FMN 200 uM): 0.0584 µM | apparent KD of K4 kissing-loop reporter (input ligand: arginine 13.2 mM): 0.0452 µM | apparent KD of K4 kissing-loop reporter (input ligand: none): 0.0793 µM | apparent KD of K4 kissing-loop reporter [1]: 0.0573 µM | apparent KD of K4 kissing-loop reporter [2]: 0.0541 µM

GCGCGCGGCGGAGGAUAUAGCAGGUGAUCCAAGAAAGUGAGUGAUGUUUAUGGAGAUGAUGAUAUGUUAGAAGGCCGCCGCGCGC [abcdefghijklmnopqrstu]
apparent KD of K4 kissing-loop reporter (input ligand: FMN 200 uM): 0.803 µM | apparent KD of K4 kissing-loop reporter (input ligand: arginine 13.2 mM): 0.448 µM | apparent KD of K4 kissing-loop reporter (input ligand: none): 0.626 µM | apparent KD of K4 kissing-loop reporter [1]: 0.847 µM | apparent KD of K4 kissing-loop reporter [2]: 0.474 µM

GCGCGGCUCAGUGAUGUUGAGCCUCGGAGACGAGGACCGGUACGGCCGCCACUCGUCCGCGCAGCUGAGGCAAAAGCCUCGGCAA [Omei KL Tryp A SS B v3]
apparent KD of K4 kissing-loop reporter (input ligand: FMN 200 uM): 0.201 µM | apparent KD of K4 kissing-loop reporter (input ligand: arginine 13.2 mM): 0.195 µM | apparent KD of K4 kissing-loop reporter (input ligand: none): 0.189 µM | apparent KD of K4 kissing-loop reporter [1]: 0.186 µM | apparent KD of K4 kissing-loop reporter [2]: 0.141 µM

GCGCGUCAUGUCAGCGGUGACACUGUCGAUACCAGUGCCGCAAGGCGCCCUUGGCAGCGACGUGCUGGAGUGAUGUUCCAGCGUU [#2 Exclusion - Theophylline A Attempt #29 (HarryS)]
apparent KD of K4 kissing-loop reporter (input ligand: FMN 200 uM): 0.156 µM | apparent KD of K4 kissing-loop reporter (input ligand: arginine 13.2 mM): 0.122 µM | apparent KD of K4 kissing-loop reporter (input ligand: none): 0.161 µM | apparent KD of K4 kissing-loop reporter [1]: 0.152 µM | apparent KD of K4 kissing-loop reporter [2]: 0.124 µM

GCGCGUCAUGUCAGCGGUGACUACGUCGAUACCAGCAGGGAAACCUGCCCUUGGCAGCGACGCGCUGGAGUGAUGUUCCGACGGC [#2 Exclusion - Theophylline A Attempt #7 (HarryS)]
apparent KD of K4 kissing-loop reporter (input ligand: FMN 200 uM): 0.184 µM | apparent KD of K4 kissing-loop reporter (input ligand: arginine 13.2 mM): 0.176 µM | apparent KD of K4 kissing-loop reporter (input ligand: none): 0.18 µM | apparent KD of K4 kissing-loop reporter [1]: 0.318 µM | apparent KD of K4 kissing-loop reporter [2]: 0.159 µM
